Paper PMC7954794, “Protein context shapes the specificity of SH3 domain-mediated interactions in vivo” (Nature Communications, 2021)

B1: S. cerevisiae Abp1 (full length; SH3 domain 535-592 mutated) / Hua2 (parent)
chain 1: MALEPIDYTTHSREIDAEYLKIVRGSDPDTTWLIISPNAKKEYEPESTGSSFHDFLQLFDETKVQYGLARVSPPGSDVEKIIIIGWCPDSAPLKTRASFAANFAAVANNLFKGYHVQVTARDEDDLDENELLMKISNAAGARYSIQTSSKQQGKASTPPVKKSFTPSKSPAPVSKKEPVKTPSPAPAAKISSRVNDNNDDDDWNEPELKERDFDQAPLKPNQSSYKPIGKIDLQKVIAEEKAKEDPRLVQKPTAAGSKIDPSSDIANLKNESKLKRDSEFNSFLGTTKPPSMTESSLKNDDDKVIKGFRNEKSPAQLWAERKAKQNSGNAETKAEAPKPEVPEDEPEGEPDVKDLKSKFEGLAASEKEEEEMENKFAPPPKKSEPTIISPKPFSKPQEPVKAEEAEQPKTDYKKIGNPLPGMHIEADNEEEPEENDDDWDDDEDEAAQPPLPSRNVASGAPVQKEEPEQEEIAPSLPSRNSIPAPKQEEAPEQAPEEEIEEEAEEAAPQLPSRSSAAPPPPPRRATPEKKPKENPWATAEYDYDAAEDNELTFVENDKIINIEFVDDDWWLGELEKDGSKGLFPSNYVSLGN
chain 2: MQQTKFGKMYLDHDSVVEYSEDEIVEADRITLGYKKRLSMIENQMRHLLEDFSLDVQQIEPILADLQKYYDAFLQLLQKRNKSLQCKRSTHQPVPSPMNSQTSTNAKVNLSGKLMKFQLNSVQKFDEENILRILQNKIEFEHYFQIDKGKKQKVLLLAVYQCLNGPTRLHKVLNIEGIIHNNSIRTILGKQVSSSKWTVFLYDVKLVLLAHRQDVPNLETSKMIVRYGDLFPCALYFKDHTAY

Variants of: B1
Experiment: DHFR protein-fragment complementation in yeast (Abp1-DHFR F[1,2] x partner-DHFR F[3]), deep mutational scanning, second methotrexate selection vs reference
Conditions: with Hua2; S. cerevisiae, DHFR-PCA selection in liquid with methotrexate at 30 C, two 72 h selections (the score uses the second); reference = the pre-selection culture; not an affinity; scale: DMS score: mean over two replicates of log2(f_test/f_ref + 0.5)/ln 2, minus the synonymous-codon median

screen value	Variant
-2.91	chain 1 D568C
-1.06	chain 1 K576V
-2.16	chain 1 K576F
-1.18	chain 1 K576I
-1.83	chain 1 K576L
-1.75	chain 1 K576D
-1.51	chain 1 K576M
-2.88	chain 1 K576P
-2.17	chain 1 K576W
-1.6	chain 1 K576Y
-2.8	chain 1 W570S
-2.79	chain 1 W570F
-2.31	chain 1 W570Y
-2.25	chain 1 W570L
-2.58	chain 1 W570R
-2.48	chain 1 W570G
-1.57	chain 1 W570C
-2.68	chain 1 W570N
-2.5	chain 1 N586F
-2.53	chain 1 N586W
-2.41	chain 1 N586Y
-2.75	chain 1 D566V
-1.86	chain 1 Y541G
-2.3	chain 1 Y541T
-2.42	chain 1 Y541I

screen value	Variant
-1.22	chain 1 N556W
-2.97	chain 1 N556P
-2.96	chain 1 N556V
-2.52	chain 1 N556I
-2.97	chain 1 E540F
-1.5	chain 1 V565F
-1.06	chain 1 V565I
-2.08	chain 1 V565E
-1.37	chain 1 V565G
-2.58	chain 1 A537P
-2.01	chain 1 A537V
-1.87	chain 1 A537T
-2.6	chain 1 A537S
-2.93	chain 1 A537F
-2.14	chain 1 A537D
-1.17	chain 1 E573A
-2.52	chain 1 E573W
-2.11	chain 1 E573L
-1.16	chain 1 E573D
-1.32	chain 1 E573K
-2.56	chain 1 E573G
-1.65	chain 1 E573R
-2.78	chain 1 L590K
-2.63	chain 1 L590S
-1.64	chain 1 L590Y

screen value	Variant
-2.55	chain 1 L590T
-2.85	chain 1 L590R
-1.72	chain 1 L590P
-2.24	chain 1 L590C
-2.84	chain 1 L590E
-2.75	chain 1 L590A
-2.44	chain 1 L590H
-1.2	chain 1 L590W
-2.62	chain 1 L590Q
-2.23	chain 1 W536G
-1.66	chain 1 W536L
-1.3	chain 1 W536R
-1.97	chain 1 W536D
-1.23	chain 1 W536N
-1.3	chain 1 W536A
-2.87	chain 1 W536P
-1.58	chain 1 W536I
-1.76	chain 1 W536K
-1.92	chain 1 D567Y
-2.53	chain 1 F564D
-2.07	chain 1 F564T
-2.97	chain 1 F564G
-1.7	chain 1 F564L
-2.93	chain 1 F564N
-1.62	chain 1 F564C

screen value	Variant
-2.35	chain 1 F564W
-2.74	chain 1 F564S
-1.74	chain 1 F564I
-2.3	chain 1 F564V
-2.55	chain 1 F564A
-2.76	chain 1 E550V
-2.77	chain 1 E550A
-2.84	chain 1 E550G
-2.04	chain 1 E550K
-1.79	chain 1 E550D
-1.22	chain 1 D548Y
-2.81	chain 1 Y587Q
-1.66	chain 1 Y587W
-1.43	chain 1 Y587N
-2.16	chain 1 Y587D
-2.59	chain 1 D577Y
-1.09	chain 1 D577E
-2.9	chain 1 D577W
-2.41	chain 1 D577Q
-2.21	chain 1 D577H
-1.18	chain 1 D577G
-2.77	chain 1 D577R
-2.96	chain 1 D577L
-2.24	chain 1 D577N
-1.59	chain 1 D577A

screen value	Variant
-2.12	chain 1 D577K
-2.26	chain 1 D577V
-2.7	chain 1 D577M
-1.84	chain 1 D542L
-1.61	chain 1 D542W
-1.41	chain 1 D542Y
-1.37	chain 1 D542V
-2.41	chain 1 D542I
-2.3	chain 1 E547A
-2.89	chain 1 E547W
-2.2	chain 1 E547C
-2.1	chain 1 E547V
-2.81	chain 1 E547G
-1.69	chain 1 E547F
-1.68	chain 1 E547M
-2.45	chain 1 E547I
-1.12	chain 1 S589Y
-2.38	chain 1 S589P
-2	chain 1 L582V
-2.04	chain 1 L582P
-2.88	chain 1 L582Q
-2.82	chain 1 L582C
-1.2	chain 1 L582H
-2.32	chain 1 L582N
-2.57	chain 1 L582S

screen value	Variant
-2.91	chain 1 L574G
-1.53	chain 1 L574A
-1.08	chain 1 L574H
-2.01	chain 1 L574P
-1.23	chain 1 L574S
-1.79	chain 1 L574Q
-1.92	chain 1 E563G
-1.5	chain 1 E563M
-1.96	chain 1 E563F
-1.4	chain 1 E563L
-2.93	chain 1 E563W
-2.45	chain 1 E563Y
-2.06	chain 1 L551Q
-1.51	chain 1 L551V
-2.52	chain 1 L551R
-2.9	chain 1 L551E
-1.38	chain 1 L551P
-2.85	chain 1 L551T
-2.93	chain 1 L551F
-2.94	chain 1 P584R
-2.52	chain 1 P584L
-2.56	chain 1 P584S
-2.85	chain 1 P584A
-2.19	chain 1 P584T
-2.12	chain 1 P584H

screen value	Variant
-2.41	chain 1 F553Y
-2.38	chain 1 F553C
-2.83	chain 1 F553S
-1.32	chain 1 F553V
-2.29	chain 1 N561A
-1.97	chain 1 N561T
-1.97	chain 1 N561I
-1.98	chain 1 N561Q
-2.5	chain 1 N561Y
-2.43	chain 1 N561M
-1.17	chain 1 N561E
-2.22	chain 1 N561C
-2.12	chain 1 N561R
-1.4	chain 1 N561G
-2.28	chain 1 N561S
-2.36	chain 1 G572E
-2.24	chain 1 G572W
-2.78	chain 1 G572R
-2.77	chain 1 G572V
-2.48	chain 1 I559N
-2.21	chain 1 I559T
-1.61	chain 1 I559S
-1.42	chain 1 I559M
-1.21	chain 1 I559F
-1.88	chain 1 K580Y

screen value	Variant
-1.55	chain 1 K580W
-2.63	chain 1 K580D
-2.39	chain 1 K580G
-1.33	chain 1 E575P
-1.16	chain 1 E575F
-1.44	chain 1 E575T
-1.15	chain 1 E575N
-1.6	chain 1 E575R
-1.41	chain 1 E575G
-1.27	chain 1 S579D
-1.48	chain 1 S579A
-1.27	chain 1 S579I
-2.55	chain 1 S579F
-2.71	chain 1 S579Y
-1.41	chain 1 S579G
-2.9	chain 1 S579W
-2.21	chain 1 S579P
-2.59	chain 1 K558D
-1.29	chain 1 K558N
-2.78	chain 1 K558W
-2.62	chain 1 K558G
-1.32	chain 1 T552E
-2.87	chain 1 T552F
-2.8	chain 1 T552Y
-2.22	chain 1 T552M

screen value	Variant
-1.13	chain 1 T552Q
-1.99	chain 1 T552I
-1.73	chain 1 T552C
-2.02	chain 1 T552P
-2.72	chain 1 T552V
-2.38	chain 1 I560G
-2.15	chain 1 I560D
-2.4	chain 1 I560W
-1.35	chain 1 I560A
-2.8	chain 1 V588W
-2.04	chain 1 V588E
-2.87	chain 1 V588F
-1.92	chain 1 V588M
-2.13	chain 1 V588T
-2.59	chain 1 V588I
-2.95	chain 1 V588D
-2.21	chain 1 V588L
-2.23	chain 1 V588G
-1.52	chain 1 V588A
-2.77	chain 1 G581S
-2.59	chain 1 G581V
-2.22	chain 1 G581D
-2.66	chain 1 G581C
-2.84	chain 1 G581A
-2.96	chain 1 G581R

screen value	Variant
-1.84	chain 1 E555W
-2.72	chain 1 A539P
-1.72	chain 1 A539S
-2.3	chain 1 A539E
-2.8	chain 1 A539G
-1.45	chain 1 A539T
-2.9	chain 1 T538G
-2.65	chain 1 T538D
-1.88	chain 1 T538P
-1.19	chain 1 T538W
-2.07	chain 1 S585E
-1.59	chain 1 S585I
-2.46	chain 1 I562S
-1.57	chain 1 I562M
-2.84	chain 1 I562C
-2.85	chain 1 I562W
-2.51	chain 1 I562F
-2.61	chain 1 I562T
-1.85	chain 1 I562N
-2.02	chain 1 A546P
-2.9	chain 1 D557G
-2.77	chain 1 D557M
-2.87	chain 1 D557V
-2.97	chain 1 D557C
-2.41	chain 1 D557S

screen value	Variant
-2.31	chain 1 D557A
-1.63	chain 1 D557N
-2.91	chain 1 D557K
-2.77	chain 1 D557Y
-1.83	chain 1 A545M
-2.7	chain 1 A545L
-2.91	chain 1 A545W
-1.96	chain 1 A545V
-1.96	chain 1 A545H
-2.84	chain 1 A545F
-1.35	chain 1 A545D
-2.53	chain 1 A545Y
-1.42	chain 1 A545P
-1.53	chain 1 G578D
-1.66	chain 1 G578C
-2.3	chain 1 G578T
-2.41	chain 1 G578Y
-1.21	chain 1 G578E
-2.12	chain 1 G578F
-2.83	chain 1 G578V
-2.28	chain 1 G578L
-2.62	chain 1 F583S
-2.31	chain 1 F583C
-1.78	chain 1 F583L
-1.68	chain 1 F583Y

screen value	Variant
-1.72	chain 1 F583I
-2.31	chain 1 F583V
-1.24	chain 1 L571G
-2.25	chain 1 L571P
-1.79	chain 1 Y543N
-2.57	chain 1 Y543D
-2.77	chain 1 Y543Q
-2.15	chain 1 Y543C
-2.96	chain 1 Y543K
-2.67	chain 1 Y543S
-2.35	chain 1 W569R
-2.06	chain 1 W569G
-2.94	chain 1 W569E
-2.92	chain 1 W569V
-2.34	chain 1 W569L
-1.49	chain 1 W569C

Same assay, conditions: with Hua2; S. cerevisiae, DHFR-PCA selection in liquid with methotrexate at 30 C, two 72 h selections (the score uses the second); reference = the pre-selection culture; not an affinity; value at the no-binding floor (a bound); scale: DMS score: mean over two replicates of log2(f_test/f_ref + 0.5)/ln 2, minus the synonymous-codon median

screen value	Variant
< -3.06	chain 1 D568P
< -3.06	chain 1 D566P
< -3.06	chain 1 D566I
< -3.06	chain 1 D566L
< -3.06	chain 1 D566W
-3	chain 1 E540P
-3.04	chain 1 A537R
-3.01	chain 1 A537I
< -3.06	chain 1 A537H
< -3.06	chain 1 A537M
-3.02	chain 1 A537L
-3.04	chain 1 A537E
< -3.06	chain 1 A537N
< -3.06	chain 1 A537Q
< -3.06	chain 1 A537Y
< -3.06	chain 1 A537W
< -3.06	chain 1 D567W
< -3.06	chain 1 D567L
-2.99	chain 1 D567F
< -3.06	chain 1 E550M
< -3.06	chain 1 E550L
< -3.06	chain 1 E550N

screen value	Variant
< -3.06	chain 1 E550C
-2.99	chain 1 D577I
-2.98	chain 1 D577F
< -3.06	chain 1 D577P
< -3.06	chain 1 E547P
< -3.06	chain 1 A539F
-3.02	chain 1 A539R
-3.01	chain 1 A539I
< -3.06	chain 1 A539L
< -3.06	chain 1 A539Y
-3.03	chain 1 A539Q
-3	chain 1 A539D
< -3.06	chain 1 A539M
< -3.06	chain 1 A539K
< -3.06	chain 1 A539N
-3.01	chain 1 A539W
< -3.06	chain 1 D557R
< -3.06	chain 1 D557I
< -3.06	chain 1 D557L
< -3.06	chain 1 D557W
< -3.06	chain 1 D557F
